Data on 1 molecule can be found in article PMC10368991, “LolA and LolB from the plant-pathogen Xanthomonas campestris forms a stable heterodimeric complex in the absence of lipoprotein” (Frontiers in Microbiology, 2023).

The target of the test is T1, Xanthomonas campestris pv. campestris (Xcc) LolB, periplasmic variant (Xanthomonas campestris pv. campestris …).
T1 chain: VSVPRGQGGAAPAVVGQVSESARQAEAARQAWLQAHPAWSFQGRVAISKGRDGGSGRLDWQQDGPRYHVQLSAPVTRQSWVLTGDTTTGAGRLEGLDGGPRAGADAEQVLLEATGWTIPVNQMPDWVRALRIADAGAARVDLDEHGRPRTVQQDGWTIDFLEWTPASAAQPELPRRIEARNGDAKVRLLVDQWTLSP
In words: ITC; LolA 1 mM in the syringe, LolB 0.1 (unit inferred) in the cell; 25.0 °C; 20 mM TRIS-HCl pH 7.8, 150 mM NaCl, 5% glycerol; 1:1 binding model; triplicate. Conditions: both partners purified. For orientation: In ITC the heat of successive injections is recorded.

Broadly, the Kd is the constant that tells how readily two partners part at equilibrium. A high value points to a looser complex. Usually stoichiometry N stands for the number of molecules, sites or subunits per partner or assembly.

B1: Xanthomonas campestris pv. campestris (Xcc) LolA (natural protein)
chain: GARQELDTFTRGLKGLDGQFSQRVTDANGRVKENSSGRVALATPRQFRWEYAKPYKQLIVADGKKVWVFDPDLEQVTVRAQGSEEQNSPLVALIDPTRLDKQYDVSEEAAPRDGLQWLSLTPKVDTDASFQMASLGFGKDGLAKMEVVDAVGQRTAISFSGWKRNPAFAADTFRYTPGKGVDVVGDAQ
Regarding B1, binding was characterised by a dissociation constant (Kd) of 14.6 ± 1 µM, the dH was -1.63 ± 0.03 kcal/mol and the “stoichiometry N” value is 0.96 ± 0.04.
